B1: N^ε28-[2-[2-[2-[[2-[2-[2-[[(4S)-4-carboxy-4-[[(4S)-4-carboxy-4-[[(4S)-4-carboxy-4-(17-carboxyheptadecanoylamino)butanoyl]amino]butanoyl]amino]butanoyl]amino]eth … (peptide)
peptide: H[Ac4c]QGTFTSDLSKYLESRRAQDFVQWLLK([AEEA-AEEA-γGlu-γGlu-γGlu-C18 diacid])T-NH2
modifications: N-terminus assumed
SMILES: CC(C)C[C@H](NC(=O)[C@H](Cc1ccc(O)cc1)NC(=O)[C@H](CCCCN)NC(=O)[C@H](CO)NC(=O)[C@H](CC(C)C)NC(=O)[C@H](CC(=O)O)NC(=O)[C@H](CO)NC(=O)[C@@H](NC(=O)[C@H](Cc1ccccc1)NC(=O)[C@@H](NC(=O)CNC(=O)[C@H](CCC(N)=O)NC(=O)C1(NC(=O)[C@@H](N)Cc2c[nH]cn2)CCC1)[C@@H](C)O)[C@@H](C)O)C(=O)N[C@@H](CCC(=O)O)C(=O)N[C@@H](CO)C(=O)N[C@@H](CCCNC(=N)N)C(=O)N[C@@H](CCCNC(=N)N)C(=O)N[C@@H](C)C(=O)N[C@@H](CCC(N)=O)C(=O)N[C@@H](CC(=O)O)C(=O)N[C@@H](Cc1ccccc1)C(=O)N[C@H](C(=O)N[C@@H](CCC(N)=O)C(=O)N[C@@H](Cc1c[nH]c2ccccc12)C(=O)N[C@@H](CC(C)C)C(=O)N[C@@H](CC(C)C)C(=O)N[C@@H](CCCCNC(=O)COCCOCCNC(=O)COCCOCCNC(=O)CC[C@H](NC(=O)CC[C@H](NC(=O)CC[C@H](NC(=O)CCCCCCCCCCCCCCCCC(=O)O)C(=O)O)C(=O)O)C(=O)O)C(=O)N[C@H](C(N)=O)[C@@H](C)O)C(C)C
B2: N^ε28-[2-[2-[2-[[2-[2-[2-[[(4S)-4-carboxy-4-[[(4S)-4-carboxy-4-[[(4S)-4-carboxy-4-(17-carboxyheptadecanoylamino)butanoyl]amino]butanoyl]amino]butanoyl]amino]eth … (peptide)
peptide: H[Aib]QGTFTSDVSKYLDLRRAQDFVQWLLK([AEEA-AEEA-γGlu-γGlu-γGlu-C18 diacid])T-NH2
modifications: N-terminus assumed
SMILES: CC(C)C[C@H](NC(=O)[C@H](CC(=O)O)NC(=O)[C@H](CC(C)C)NC(=O)[C@H](Cc1ccc(O)cc1)NC(=O)[C@H](CCCCN)NC(=O)[C@H](CO)NC(=O)[C@@H](NC(=O)[C@H](CC(=O)O)NC(=O)[C@H](CO)NC(=O)[C@@H](NC(=O)[C@H](Cc1ccccc1)NC(=O)[C@@H](NC(=O)CNC(=O)[C@H](CCC(N)=O)NC(=O)C(C)(C)NC(=O)[C@@H](N)Cc1c[nH]cn1)[C@@H](C)O)[C@@H](C)O)C(C)C)C(=O)N[C@@H](CCCNC(=N)N)C(=O)N[C@@H](CCCNC(=N)N)C(=O)N[C@@H](C)C(=O)N[C@@H](CCC(N)=O)C(=O)N[C@@H](CC(=O)O)C(=O)N[C@@H](Cc1ccccc1)C(=O)N[C@H](C(=O)N[C@@H](CCC(N)=O)C(=O)N[C@@H](Cc1c[nH]c2ccccc12)C(=O)N[C@@H](CC(C)C)C(=O)N[C@@H](CC(C)C)C(=O)N[C@@H](CCCCNC(=O)COCCOCCNC(=O)COCCOCCNC(=O)CC[C@H](NC(=O)CC[C@H](NC(=O)CC[C@H](NC(=O)CCCCCCCCCCCCCCCCC(=O)O)C(=O)O)C(=O)O)C(=O)O)C(=O)N[C@H](C(N)=O)[C@@H](C)O)C(C)C
B3: N^ε28-[2-[2-[2-[[2-[2-[2-[[(4S)-4-carboxy-4-[[(4S)-4-carboxy-4-[[(4S)-4-carboxy-4-(17-carboxyheptadecanoylamino)butanoyl]amino]butanoyl]amino]butanoyl]amino]eth … (peptide)
peptide: H[Aib]QGTFTSDVSRYLDLRRAQDFVQWLLK([AEEA-AEEA-γGlu-γGlu-γGlu-C18 diacid])T-NH2
modifications: N-terminus assumed
SMILES: CC(C)C[C@H](NC(=O)[C@H](CC(=O)O)NC(=O)[C@H](CC(C)C)NC(=O)[C@H](Cc1ccc(O)cc1)NC(=O)[C@H](CCCNC(=N)N)NC(=O)[C@H](CO)NC(=O)[C@@H](NC(=O)[C@H](CC(=O)O)NC(=O)[C@H](CO)NC(=O)[C@@H](NC(=O)[C@H](Cc1ccccc1)NC(=O)[C@@H](NC(=O)CNC(=O)[C@H](CCC(N)=O)NC(=O)C(C)(C)NC(=O)[C@@H](N)Cc1c[nH]cn1)[C@@H](C)O)[C@@H](C)O)C(C)C)C(=O)N[C@@H](CCCNC(=N)N)C(=O)N[C@@H](CCCNC(=N)N)C(=O)N[C@@H](C)C(=O)N[C@@H](CCC(N)=O)C(=O)N[C@@H](CC(=O)O)C(=O)N[C@@H](Cc1ccccc1)C(=O)N[C@H](C(=O)N[C@@H](CCC(N)=O)C(=O)N[C@@H](Cc1c[nH]c2ccccc12)C(=O)N[C@@H](CC(C)C)C(=O)N[C@@H](CC(C)C)C(=O)N[C@@H](CCCCNC(=O)COCCOCCNC(=O)COCCOCCNC(=O)CC[C@H](NC(=O)CC[C@H](NC(=O)CC[C@H](NC(=O)CCCCCCCCCCCCCCCCC(=O)O)C(=O)O)C(=O)O)C(=O)O)C(=O)N[C@H](C(N)=O)[C@@H](C)O)C(C)C
B4: N^ε28-[2-[2-[2-[[2-[2-[2-[[(4S)-4-carboxy-4-[[(4S)-4-carboxy-4-[[(4S)-4-carboxy-4-(17-carboxyheptadecanoylamino)butanoyl]amino]butanoyl]amino]butanoyl]amino]eth … (peptide)
peptide: H[Aib]QGTFTSDVSRYLDARRAQDFVQWLLK([AEEA-AEEA-γGlu-γGlu-γGlu-C18 diacid])T-NH2
modifications: N-terminus assumed
SMILES: CC(C)C[C@H](NC(=O)[C@H](Cc1ccc(O)cc1)NC(=O)[C@H](CCCNC(=N)N)NC(=O)[C@H](CO)NC(=O)[C@@H](NC(=O)[C@H](CC(=O)O)NC(=O)[C@H](CO)NC(=O)[C@@H](NC(=O)[C@H](Cc1ccccc1)NC(=O)[C@@H](NC(=O)CNC(=O)[C@H](CCC(N)=O)NC(=O)C(C)(C)NC(=O)[C@@H](N)Cc1c[nH]cn1)[C@@H](C)O)[C@@H](C)O)C(C)C)C(=O)N[C@@H](CC(=O)O)C(=O)N[C@@H](C)C(=O)N[C@@H](CCCNC(=N)N)C(=O)N[C@@H](CCCNC(=N)N)C(=O)N[C@@H](C)C(=O)N[C@@H](CCC(N)=O)C(=O)N[C@@H](CC(=O)O)C(=O)N[C@@H](Cc1ccccc1)C(=O)N[C@H](C(=O)N[C@@H](CCC(N)=O)C(=O)N[C@@H](Cc1c[nH]c2ccccc12)C(=O)N[C@@H](CC(C)C)C(=O)N[C@@H](CC(C)C)C(=O)N[C@@H](CCCCNC(=O)COCCOCCNC(=O)COCCOCCNC(=O)CC[C@H](NC(=O)CC[C@H](NC(=O)CC[C@H](NC(=O)CCCCCCCCCCCCCCCCC(=O)O)C(=O)O)C(=O)O)C(=O)O)C(=O)N[C@H](C(N)=O)[C@@H](C)O)C(C)C
B5: N^ε28-[2-[2-[2-[[2-[2-[2-[[(4S)-4-carboxy-4-[[(4S)-4-carboxy-4-[[(4S)-4-carboxy-4-(17-carboxyheptadecanoylamino)butanoyl]amino]butanoyl]amino]butanoyl]amino]eth … (peptide)
peptide: H[Aib]QGTFTSDVSKYLDARRAQDFVQWLLK([AEEA-AEEA-γGlu-γGlu-γGlu-C18 diacid])T-NH2
modifications: N-terminus assumed
SMILES: CC(C)C[C@H](NC(=O)[C@H](Cc1ccc(O)cc1)NC(=O)[C@H](CCCCN)NC(=O)[C@H](CO)NC(=O)[C@@H](NC(=O)[C@H](CC(=O)O)NC(=O)[C@H](CO)NC(=O)[C@@H](NC(=O)[C@H](Cc1ccccc1)NC(=O)[C@@H](NC(=O)CNC(=O)[C@H](CCC(N)=O)NC(=O)C(C)(C)NC(=O)[C@@H](N)Cc1c[nH]cn1)[C@@H](C)O)[C@@H](C)O)C(C)C)C(=O)N[C@@H](CC(=O)O)C(=O)N[C@@H](C)C(=O)N[C@@H](CCCNC(=N)N)C(=O)N[C@@H](CCCNC(=N)N)C(=O)N[C@@H](C)C(=O)N[C@@H](CCC(N)=O)C(=O)N[C@@H](CC(=O)O)C(=O)N[C@@H](Cc1ccccc1)C(=O)N[C@H](C(=O)N[C@@H](CCC(N)=O)C(=O)N[C@@H](Cc1c[nH]c2ccccc12)C(=O)N[C@@H](CC(C)C)C(=O)N[C@@H](CC(C)C)C(=O)N[C@@H](CCCCNC(=O)COCCOCCNC(=O)COCCOCCNC(=O)CC[C@H](NC(=O)CC[C@H](NC(=O)CC[C@H](NC(=O)CCCCCCCCCCCCCCCCC(=O)O)C(=O)O)C(=O)O)C(=O)O)C(=O)N[C@H](C(N)=O)[C@@H](C)O)C(C)C
B6: N^ε28-[2-[2-[2-[[2-[2-[2-[[(4S)-4-carboxy-4-[[(4S)-4-carboxy-4-[[(4S)-4-carboxy-4-(17-carboxyheptadecanoylamino)butanoyl]amino]butanoyl]amino]butanoyl]amino]eth … (peptide)
peptide: H[Aib]QGTFTSDLSRYLDARRAQDFVQWLLK([AEEA-AEEA-γGlu-γGlu-γGlu-C18 diacid])T-NH2
modifications: N-terminus assumed
SMILES: CC(C)C[C@H](NC(=O)[C@H](Cc1ccc(O)cc1)NC(=O)[C@H](CCCNC(=N)N)NC(=O)[C@H](CO)NC(=O)[C@H](CC(C)C)NC(=O)[C@H](CC(=O)O)NC(=O)[C@H](CO)NC(=O)[C@@H](NC(=O)[C@H](Cc1ccccc1)NC(=O)[C@@H](NC(=O)CNC(=O)[C@H](CCC(N)=O)NC(=O)C(C)(C)NC(=O)[C@@H](N)Cc1c[nH]cn1)[C@@H](C)O)[C@@H](C)O)C(=O)N[C@@H](CC(=O)O)C(=O)N[C@@H](C)C(=O)N[C@@H](CCCNC(=N)N)C(=O)N[C@@H](CCCNC(=N)N)C(=O)N[C@@H](C)C(=O)N[C@@H](CCC(N)=O)C(=O)N[C@@H](CC(=O)O)C(=O)N[C@@H](Cc1ccccc1)C(=O)N[C@H](C(=O)N[C@@H](CCC(N)=O)C(=O)N[C@@H](Cc1c[nH]c2ccccc12)C(=O)N[C@@H](CC(C)C)C(=O)N[C@@H](CC(C)C)C(=O)N[C@@H](CCCCNC(=O)COCCOCCNC(=O)COCCOCCNC(=O)CC[C@H](NC(=O)CC[C@H](NC(=O)CC[C@H](NC(=O)CCCCCCCCCCCCCCCCC(=O)O)C(=O)O)C(=O)O)C(=O)O)C(=O)N[C@H](C(N)=O)[C@@H](C)O)C(C)C

Numbered stars: 1 amine (or outer) side, 2 acyl side, 3 side chain; on linkers, the order of the positions; unused ones are H or OH. Square brackets hold non-standard residues; d marks the D form. Side chains are listed from the residue outwards. Ends that are not written are not given here. * marks the point of attachment. C18 diacid = O=C(O)CCCCCCCCCCCCCCCCC(=O)*; γGlu = O=C(O)[C@H](CCC(=O)[*:2])N[*:1]; Ac4c = NC1(C(=O)O)CCC1; AEEA = NCCOCCOCC(=O)O; Aib = CC(C)(N)C(=O)O

Six molecules from patent publication US20150374794A1 (Novo Nordisk, published 2015) can be followed below.

T1 sequence (P47871 26-477): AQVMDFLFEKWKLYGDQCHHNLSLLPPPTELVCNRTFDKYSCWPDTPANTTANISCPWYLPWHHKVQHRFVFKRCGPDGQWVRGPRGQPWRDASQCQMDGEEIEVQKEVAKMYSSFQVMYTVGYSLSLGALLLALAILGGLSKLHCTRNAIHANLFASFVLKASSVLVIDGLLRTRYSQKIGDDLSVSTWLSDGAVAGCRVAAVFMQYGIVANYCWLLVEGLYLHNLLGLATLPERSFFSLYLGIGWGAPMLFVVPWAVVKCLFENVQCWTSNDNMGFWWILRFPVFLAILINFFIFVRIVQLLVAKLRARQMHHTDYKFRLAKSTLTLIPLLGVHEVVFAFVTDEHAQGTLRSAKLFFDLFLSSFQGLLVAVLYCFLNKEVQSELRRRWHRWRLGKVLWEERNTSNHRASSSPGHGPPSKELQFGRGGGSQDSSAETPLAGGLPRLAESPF

One assay addresses T1, human glucagon receptor (human, UniProt P47871 26-477).
T1 construct: whole, on cells; the potency assay used whole cells (clone pLJ6'-4-25); also called GlucR; hGCGR
In words: displacement of 125I-glucagon, membranes with human glucagon receptor, SPA. The procedure: The receptor binding of each compound to the human glucagon receptor was measured in a displacement binding assay. […] Each derivative was added in a series of concentrations to isolated membranes containing the human glucagon receptor and displacement of the labelled ligand is monitored. The receptor binding was reported as the concentration at which half of the labelled ligand is displaced from the receptor, the IC₅₀ value.
In turn, B1 gave an IC50 of 7700 pM.
In turn, B2 showed an IC50 of 5700 pM.
For the molecule B3, the IC50 came out at 16200 pM.
Still for that read-out and setting: under B4 stands 11300 pM; under B5, 3200 pM.
Same read-out and setting: with B6 the figure was 5500 pM.

A further assay deals with T2, human GLP-1 receptor (human, UniProt P43220 24-463).
T2 construct: whole, on cells; the potency assay used whole cells (clone FCW467-12A/KZ10-1)
In words: displacement of 125I-GLP-1(7-36)NH2, membranes with human GLP-1R, SPA. The procedure:
The receptor binding of each compound to the human GLP-1 receptor was measured in a displacement binding assay. […] Each derivative was added in a series of concentrations to isolated membranes containing the human GLP-1 receptor and displacement of the labelled ligand was monitored. The receptor binding was reported as the concentration at which half of the labelled ligand was displaced from the receptor, the IC₅₀ value.
In the case of B1, the IC50 came out at 800 pM.
On the same count and under the same terms, with B2 the figure was 700 pM; with B3, 1500 pM; with B4, 500 pM.
Same read-out and setting: with B5 the figure was 200 pM.
B6 came in with an IC50 of 900 pM.

For the next assay, the target named is T2, human GLP-1 receptor. The assay is described as follows: cell-based or functional assay.
As to B1, the “EC50 GLP-1R, CRE luciferase reporter gene assay in BHK cells” value (shortened to “EC50 GLP-1R”) was determined as 7 pM.
Still for that read-out and setting: under B2 stands 4 pM; under B3, 5 pM; under B4, 3 pM.
With B5, the “EC50 GLP-1R” value worked out at 1.5 pM.
For the molecule B6, the “EC50 GLP-1R” value worked out at 3 pM.

The target in the next assay is T1, human glucagon receptor. In words: cell-based or functional assay.
As for B1, the “EC50 GlucR, CRE luciferase reporter gene assay in BHK cells” value was 24 pM.
On to B2, for which the “EC50 GlucR, CRE luciferase reporter gene assay in BHK cells” value was 17 pM.
Still for that read-out and setting: under B3 stands 49 pM.
Still for that read-out and setting: with B4 the figure was 57 pM; with B5, 30 pM.
Still for that read-out and setting: under B6 stands 20 pM.
